Data set [1] has as its target T1, f:GFP-WRN (Werner syndrome protein) (Homo sapiens, UniProt Q14191 1-1432). In words: single-molecule TIRF GFP photobleaching; no ATP; dimer preferred, heterogeneous up to 4 steps; 1 nM RPA did not change conclusion; Binding buffer, pH and temperature not in the material; 24 nM GFP-WRN in the forked-DNA unwinding assay (1 nM RPA); NaCl tested at 15, 50 and 150 mM on the replication fork; GFP imaging without oxygen scavenger. The following applies: protein: recombinant; tags: N-terminal FLAG and GFP; chain copies: 2; label: Cy3 and Cy5 in the single-stranded overhangs; 5' biotin on bottom strand; fork 1:2, 3' ssDNA arm on top and 5' ssDNA arm on bottom.

Data set [2] deals with T1, f:GFP-WRN (Werner syndrome protein). The data set can be described thus: single-molecule TIRF GFP photobleaching; 1 mM ATP-Mg2+, 2 min; active molecules dimeric; Binding buffer, pH and temperature not in the material; 24 nM GFP-WRN in the forked-DNA unwinding assay (1 nM RPA); NaCl tested at 15, 50 and 150 mM on the replication fork; GFP imaging without oxygen scavenger. Particulars: protein: recombinant; tags: N-terminal FLAG and GFP; chain copies: 2; label: Cy3 and Cy5 FRET pair; 5' biotin on leading parent; four-strand fork 1:3 2:4 3:4; heterologous distal arm ends.

For data set [3] the target is unchanged. In words: single-molecule TIRF GFP photobleaching; no ATP; tetramer (binomial n=4); Binding buffer, pH and temperature not in the material; 24 nM GFP-WRN in the forked-DNA unwinding assay (1 nM RPA); NaCl tested at 15, 50 and 150 mM on the replication fork; GFP imaging without oxygen scavenger. The following applies: protein: recombinant; tags: N-terminal FLAG and GFP; chain copies: 2; label: Cy3 and Cy5 FRET pair; 5' biotin on leading parent; four-strand fork 1:3 2:4 3:4; 11-nt leading gap, 2-nt lagging gap; heterologous bases near junction.

This note sets out measurements from paper PMC9841404, “Werner syndrome protein works as a dimer for unwinding and replication fork regression”.

T1 sequence (Q14191 whole entry): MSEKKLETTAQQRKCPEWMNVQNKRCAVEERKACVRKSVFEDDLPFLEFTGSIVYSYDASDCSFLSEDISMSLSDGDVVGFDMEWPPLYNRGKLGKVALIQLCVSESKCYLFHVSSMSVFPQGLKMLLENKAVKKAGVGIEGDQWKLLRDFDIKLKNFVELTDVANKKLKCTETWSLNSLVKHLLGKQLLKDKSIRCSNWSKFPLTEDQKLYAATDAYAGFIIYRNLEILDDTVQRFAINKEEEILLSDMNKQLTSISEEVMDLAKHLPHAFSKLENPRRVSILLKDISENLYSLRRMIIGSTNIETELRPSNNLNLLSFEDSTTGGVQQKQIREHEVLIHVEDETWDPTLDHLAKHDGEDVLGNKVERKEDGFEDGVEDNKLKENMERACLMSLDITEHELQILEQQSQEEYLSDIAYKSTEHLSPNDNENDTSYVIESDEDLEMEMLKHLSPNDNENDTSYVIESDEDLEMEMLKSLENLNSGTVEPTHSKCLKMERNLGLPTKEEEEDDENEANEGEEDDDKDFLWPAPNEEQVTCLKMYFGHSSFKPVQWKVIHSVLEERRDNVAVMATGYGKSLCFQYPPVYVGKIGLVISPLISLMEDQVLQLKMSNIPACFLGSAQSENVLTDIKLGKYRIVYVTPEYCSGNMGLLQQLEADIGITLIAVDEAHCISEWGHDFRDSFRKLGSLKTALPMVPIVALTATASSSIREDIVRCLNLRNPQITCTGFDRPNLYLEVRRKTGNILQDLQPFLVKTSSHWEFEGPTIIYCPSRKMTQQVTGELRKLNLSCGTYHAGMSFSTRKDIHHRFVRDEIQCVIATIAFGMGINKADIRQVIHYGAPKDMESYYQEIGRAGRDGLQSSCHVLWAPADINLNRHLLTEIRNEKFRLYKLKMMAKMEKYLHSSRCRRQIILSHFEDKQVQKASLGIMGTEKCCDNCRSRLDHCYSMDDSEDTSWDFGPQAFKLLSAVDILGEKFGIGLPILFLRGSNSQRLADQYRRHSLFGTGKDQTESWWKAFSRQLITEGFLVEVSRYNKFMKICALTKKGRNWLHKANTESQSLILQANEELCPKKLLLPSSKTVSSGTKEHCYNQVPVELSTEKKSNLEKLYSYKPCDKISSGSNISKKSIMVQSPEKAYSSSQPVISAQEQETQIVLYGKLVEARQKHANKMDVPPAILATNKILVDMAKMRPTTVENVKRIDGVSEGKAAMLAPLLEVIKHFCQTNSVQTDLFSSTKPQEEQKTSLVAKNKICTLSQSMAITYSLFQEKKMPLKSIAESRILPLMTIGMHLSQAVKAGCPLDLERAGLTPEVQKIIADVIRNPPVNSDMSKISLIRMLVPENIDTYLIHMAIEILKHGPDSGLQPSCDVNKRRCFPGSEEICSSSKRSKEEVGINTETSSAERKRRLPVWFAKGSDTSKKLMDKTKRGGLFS

B1: Forked DNA (Figure 1A) (structured_DNA)
DNA 1: GAGAAGCACGCTGCCGAATTCTACCAGTGCCTTGCTAGGACATGTTTGCCTTTTTTTTTTTTTTTTTTTTTTTTTTTTTT
DNA 2: TTTTTTTTTTTTTTTTTTTTTTTTGGCAAACATGTCCTAGCAAGGCACTGGTAGAATTCGGCAGCGTGCTTCTC
modifications: amino C6 dT at dye sites
As for B1, the binding result in data set [1] is reported as “binds”.

B2: Replication fork with 15 bp non-homologous region (Figure 3D) (structured_DNA)
DNA 1: TCGACAGGTCATGGCCGTACATGATATCCTCGAGCGGTCCTGTTGC
DNA 2: TCAGAGTGTGCAACAGGACCGCTCGAGGATATCATGTACGATAGCTTGGCCGCAT
DNA 3: TGTTAACCCTAACCCTAAGAATTCGGCTTAAGTGAGTGTGCAACAGGACCGCTCGAGGATATCATGTACGGCCATGACCTGTCGA
DNA 4: ATGCGGCCAAGCTATCGTACATGATATCCTCGAGCGGTCCTGTTGCACACTCTGAATAGCCGAATTCTTAGGGTTAGGGTTAACA
modifications: amino C6 dT at dye sites of the daughter strands
With B2, in data set [2], the binding result is listed as “binds”.

B3: Model replication fork (Figure 1B) (structured_DNA)
DNA 1: TCGACAGGTCATGGCCGTACATGATATCCTCGAGCGGTCCTGTTGCAACTTA
DNA 2: TCAGAGTGTTAAGTTGCAACAGGACCGCTCGAGGATATCATGTACGGCCATGACCTGTCG
DNA 3: TGTTAACCCTAACCCTAAGAATTCGGCTTAAGTGAGTGTTAAGTTGCAACAGGACCGCTCGAGGATATCATGTACGGCCATGACCTGTCGA
DNA 4: CGACAGGTCATGGCCGTACATGATATCCTCGAGCGGTCCTGTTGCAACTTAACACTCTGAATAGCCGAATTCTTAGGGTTAGGGTTAACA
modifications: amino C6 dT at dye sites of the daughter strands
In the case of B3, the binding result in data set [3] is listed as “binds”.
